Reference: patent publication US20090214555A1
Where no end group is shown, it is not given here.

Target: rabbit polyclonal anti-Syn2vE1a antibodies
Assay: epitope peptide competition: antisera pre-absorbed with 3 mg/ml synthetic epitope peptide, then Western blot on Syn2vE1a lysate

With CGIRRAPLYKRHPTGTA-NH2 [synthetic epitope peptide (C)…-amide] the percent of anti-Syn2vE1a signals blocked was > 98%.
